Results on 14 molecules are retold here after patent publication US20170355769A1 (AbbVie / Abbott, published 2017).

The EC50 is the concentration that produces a half-maximal response. Higher therefore signals weaker potency.

For assay [1], the target named is T1, Human full length B7-H3 (human, UniProt Q5ZPR3 29-534).
T1 construct: On 3T12 fibroblasts expressing full length human B7-H3 or on NCI-H1650 cells; signal peptide residues 1-28 stated; also called huB7-H3; CD276
T1 sequence: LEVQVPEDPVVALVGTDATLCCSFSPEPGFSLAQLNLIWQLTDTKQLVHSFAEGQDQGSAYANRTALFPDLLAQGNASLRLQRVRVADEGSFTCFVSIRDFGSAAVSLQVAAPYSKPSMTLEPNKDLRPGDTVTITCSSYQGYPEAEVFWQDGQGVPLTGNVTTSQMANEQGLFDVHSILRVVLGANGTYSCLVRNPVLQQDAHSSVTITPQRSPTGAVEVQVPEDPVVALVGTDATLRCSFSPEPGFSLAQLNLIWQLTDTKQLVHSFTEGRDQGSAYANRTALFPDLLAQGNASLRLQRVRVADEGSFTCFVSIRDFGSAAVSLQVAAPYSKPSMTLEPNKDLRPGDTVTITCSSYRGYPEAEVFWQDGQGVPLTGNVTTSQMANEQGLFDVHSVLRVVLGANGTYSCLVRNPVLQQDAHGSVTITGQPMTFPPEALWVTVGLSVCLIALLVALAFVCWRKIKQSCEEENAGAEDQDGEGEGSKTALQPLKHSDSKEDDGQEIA
The experiment in a line: FACS. A general note: A flow cytometer gives signals particle by particle.

Assay [2] concerns the target T2, hB7-H3 (ELISA antigen of Tables 17 and 20) (human, UniProt Q5ZPR3 29-466, limits assumed).
T2 sequence: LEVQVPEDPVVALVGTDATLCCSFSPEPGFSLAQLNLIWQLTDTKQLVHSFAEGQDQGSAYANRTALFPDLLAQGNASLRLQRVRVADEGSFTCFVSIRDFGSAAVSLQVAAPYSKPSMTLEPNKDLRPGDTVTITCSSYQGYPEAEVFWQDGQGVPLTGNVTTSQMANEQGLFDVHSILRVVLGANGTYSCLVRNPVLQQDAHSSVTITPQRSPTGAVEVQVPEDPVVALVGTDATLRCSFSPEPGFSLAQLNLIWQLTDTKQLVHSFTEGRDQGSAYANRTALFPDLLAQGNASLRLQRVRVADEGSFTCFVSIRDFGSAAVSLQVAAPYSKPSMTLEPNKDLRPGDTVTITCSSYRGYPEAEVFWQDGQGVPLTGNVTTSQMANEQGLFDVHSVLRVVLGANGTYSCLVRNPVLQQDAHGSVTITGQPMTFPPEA
The assay can be described thus: ELISA. For orientation: ELISA stands for enzyme-linked immunosorbent assay.

Assay [3] addresses T3, Cynomolgous B7-H3 on cells (cynomolgus).
T3 construct: whole, on cells; also called cyB7-H3; cyno B7-H3
The assay can be described thus: FACS, 3T12 transfectants.

Assay [4] has as its target T1, Human full length B7-H3. The experiment in a line: FACS, 3T12 transfectants.
The target in assay [5] is T1, Human full length B7-H3. The assay can be described thus: cell-based or functional assay.
Assay [6] addresses T1, Human full length B7-H3. The experiment in a line: FACS (Example 6 method). How it is done: Cells were harvested from flasks when approximately 80% confluent using Gibco® Cell Dissociation Buffer. Cells were washed once in PBS/1% FBS (FACS buffer) then resuspended at 2.5×10⁶ cells/mL in FACS buffer. 100 μL of cells/well were added to a round bottom 96-well plate. 10 μL of a 10× concentration of mAb/ADC (final concentrations are indicated the figures). Wells were washed twice with FACS buffer and resuspended in 50 μL of secondary Ab (AlexaFluor 488) diluted in FACS buffer. The plate was incubated at 4° C. for one hour and washed twice with FACS buffer. Cells were resuspended in 100 μL of PBS/1% formaldehyde and analyzed on a Becton Dickinson LSRII flow cytometer. Data was analyzed using WinList flow cytometry analysis software.
These variants were further characterized for binding by SPR and as ADCs conjugated to the Bcl-xL inhibitor synthon (linker warhead) CZ. […] An ADC comprising chAb3 conjugated to synthon CZ was used as a control.

The target of assay [7] is T1, Human full length B7-H3. The assay can be described thus: FACS, 3T12 transfectants. The source holds these as a separate data set.

B1: huAb13v9 (antibody, V domains shown)
VH: EVQLQESGPGLVKPSETLSLTCAVSGYSITSGYSWHWIRQPPGNGLEWMGYIHSSGSTNYNPSLKSRITISRDTSKNQFSLKLSSVTAADTAVYYCARYDDYFEYWGQGTTVTVSS
VL: DIQMTQSPSSLSASVGDRVTITCKASQNVGFNVAWYQQKPGKAPKLLIYSASYRYSGVPSRFSGSGSGTDFTLTISSLQPEDFATYFCQQYNWYPFTFGQGTKLEIK
notes: humanized IgG
As to B1, the binding result in the assay with Human full length B7-H3 [1] is “no binding”.

B2: huAb13v3 (antibody, V domains shown)
VH: EVQLQESGPGLVKPSETLSLTCAVSGYSITSGYSWHWIRQPPGKGLEWIGYIHSSGSTNYNPSLKSRVTISVDTSKNQFSLKLSSVTAADTAVYYCARYDDYFEYWGQGTTVTVSS
VL: DIQMTQSPSSLSASVGDRVTITCKASQNVGFNVAWYQQKPGKSPKALIYSASYRYSGVPSRFSGSGSGTDFTLTISSLQPEDFAEYFCQQYNWYPFTFGQGTKLEIK
notes: humanized IgG
B2: the binding result with Human full length B7-H3 [1] is on record as “no binding”.

B3: huAb13v4 (antibody, V domains shown)
VH: EVQLQESGPGLVKPSETLSLTCAVSGYSITSGYSWHWIRQPPGKGLEWIGYIHSSGSTNYNPSLKSRVTISVDTSKNQFSLKLSSVTAADTAVYYCARYDDYFEYWGQGTTVTVSS
VL: DIQMTQSPSSLSASVGDRVTITCKASQNVGFNVAWYQQKPGKAPKLLIYSASYRYSGVPSRFSGSGSGTDFTLTISSLQPEDFATYFCQQYNWYPFTFGQGTKLEIK
notes: humanized IgG
Turning to B3, the binding result with Human full length B7-H3 [1] is “no binding”.

B4: huAb13v2 (antibody, V domains shown)
VH: EVQLQESGPGLVKPSETLSLTCAVSGYSITSGYSWHWIRQPPGKGLEWIGYIHSSGSTNYNPSLKSRVTISVDTSKNQFSLKLSSVTAADTAVYYCARYDDYFEYWGQGTTVTVSS
VL: DIQMTQSPSSLSASVGDRVTITCKASQNVGFNVAWYQQKPGKAPKLLIYSASYRYSGVPSRFSGSGSGTDFTLTISSLQPEDFATYYCQQYNWYPFTFGQGTKLEIK
notes: humanized IgG
As for B4, the binding result with Human full length B7-H3 [1] is recorded as “no binding”.

B5: huAb13v7 (antibody, V domains shown)
VH: EVQLQESGPGLVKPSETLSLTCAVSGYSITSGYSWHWIRQPPGNGLEWMGYIHSSGSTNYNPSLKSRITISRDTSKNQFSLKLSSVTAADTAVYYCARYDDYFEYWGQGTTVTVSS
VL: DIQMTQSPSSLSASVGDRVTITCKASQNVGFNVAWYQQKPGKAPKLLIYSASYRYSGVPSRFSGSGSGTDFTLTISSLQPEDFATYYCQQYNWYPFTFGQGTKLEIK
notes: humanized IgG
In the case of B5, the binding result in the assay with Human full length B7-H3 [1] is given as “no binding”.

B6: huAb13v8 (antibody, V domains shown)
VH: EVQLQESGPGLVKPSETLSLTCAVSGYSITSGYSWHWIRQPPGNGLEWMGYIHSSGSTNYNPSLKSRITISRDTSKNQFSLKLSSVTAADTAVYYCARYDDYFEYWGQGTTVTVSS
VL: DIQMTQSPSSLSASVGDRVTITCKASQNVGFNVAWYQQKPGKSPKALIYSASYRYSGVPSRFSGSGSGTDFTLTISSLQPEDFAEYFCQQYNWYPFTFGQGTKLEIK
notes: humanized IgG
In the case of B6, the binding result with Human full length B7-H3 [1] is “no binding”.

B7: huAb3v2.6-CZ (antibody, human IgG1, kappa, L234A L235A, V domains shown)
VH: EVQLVQSGAEVKKPGSSVKVSCKASGYTFSSYWMHWVRQAPGQGLEWIGLIHPESGSTNYNEMFKNRATLTVDRSTSTAYMELSSLRSEDTAVYYCAGGGRLYFDYWGQGTTVTVSS
VL: DIVMTQSPLSLPVTPGEPASISCRSSQSLVHSNQDTYLRWYLQKPGQSPQLLIYKVSNRFSGVPDRFSGSGSGTDFTLKISRVEAEDVGVYYCSQSTHVPYTFGGGTKVEIKR
modifications: synthon CZ on reduced interchain Cys
Regarding B7, the EC50 in assay [2] was found to be 0.09 nM; in assay [3], 3.31 nM; with Human full length B7-H3 [4], 5.64 nM. Moreover, the “EC50 nM H1650 (tumor cell cytotoxicity)” value with Human full length B7-H3 [5] turned out to be 0.4 nM.

B8: huAb3v2-CZ (antibody, V domains shown)
VH: EVQLVQSGAEVKKPGSSVKVSCKASGYTFSSYWMHWVRQAPGQGLEWIGLIHPDSGSTNYNEMFKNRATLTVDRSTSTAYMELSSLRSEDTAVYYCAGGGRLYFDYWGQGTTVTVSS
VL: DIVMTQSPLSLPVTPGEPASISCRSSQSLVHSNGDTYLRWYLQKPGQSPQLLIYKVSNRFSGVPDRFSGSGSGTDFTLKISRVEAEDVGVYYCSQSTHVPYTFGGGTKVEIK
modifications: synthon CZ on reduced interchain Cys
On to B8, for which the concentration giving a half-maximal response (EC50) turned out to be 0.44 nM in assay [2], 0.73 nM with Human full length B7-H3 [6], 2.87 nM in assay [3] and 5.11 nM with Human full length B7-H3 [4].

B9: huAb3v2.2-CZ (antibody, V domains shown)
VH: EVQLVQSGAEVKKPGSSVKVSCKASGYTFSSYWMHWVRQAPGQGLEWIGLIHPWSGSTNYNEMFKNRATLTVDRSTSTAYMELSSLRSEDTAVYYCAGGGRLYFDYWGQGTTVTVSS
VL: DIVMTQSPLSLPVTPGEPASISCRSSQSLVHSNRDTYLRWYLQKPGQSPQLLIYKVSNRFSGVPDRFSGSGSGTDFTLKISRVEAEDVGVYYCSQSTHVPYTFGGGTKVEIK
modifications: synthon CZ on reduced interchain Cys
notes: ADC, DAR 0.7
Take B9: the EC50 worked out at 0.1 nM in assay [2], 3.68 nM in assay [3] and 5.29 nM in the assay with Human full length B7-H3 [4].

B10: huAb3v2.3 (antibody, V domains shown)
VH: EVQLVQSGAEVKKPGSSVKVSCKASGYTFSSYWMHWVRQAPGQGLEWIGLIHPWSGSTNYNEMFKNRATLTVDRSTSTAYMELSSLRSEDTAVYYCAGGGRLYFDYWGQGTTVTVSS
VL: DIVMTQSPLSLPVTPGEPASISCRSSQSLVHSNQDTYLRWYLQKPGQSPQLLIYKVSNRFSGVPDRFSGSGSGTDFTLKISRVEAEDVGVYYCSQSTHVPYTFGGGTKVEIK
notes: humanized IgG
B10: in the assay with Human full length B7-H3 [7], the binding result is recorded as “binds”.

B11: huAb3v2.9-CZ (antibody, V domains shown)
VH: EVQLVQSGAEVKKPGSSVKVSCKASGYTFSSYWMHWVRQAPGQGLEWIGLIHPISGSTNYNEMFKNRATLTVDRSTSTAYMELSSLRSEDTAVYYCAGGGRLYFDYWGQGTTVTVSS
VL: DIVMTQSPLSLPVTPGEPASISCRSSQSLVHSNQDTYLRWYLQKPGQSPQLLIYKVSNRFSGVPDRFSGSGSGTDFTLKISRVEAEDVGVYYCSQSTHVPYTFGGGTKVEIK
modifications: synthon CZ on reduced interchain Cys
notes: ADC, DAR 2.7
For the molecule B11, the EC50 is 0.16 nM in assay [2], 4.64 nM in assay [3] and 6.16 nM in the assay with Human full length B7-H3 [4].

B12: huAb3v2.9 (antibody, V domains shown)
VH: EVQLVQSGAEVKKPGSSVKVSCKASGYTFSSYWMHWVRQAPGQGLEWIGLIHPISGSTNYNEMFKNRATLTVDRSTSTAYMELSSLRSEDTAVYYCAGGGRLYFDYWGQGTTVTVSS
VL: DIVMTQSPLSLPVTPGEPASISCRSSQSLVHSNQDTYLRWYLQKPGQSPQLLIYKVSNRFSGVPDRFSGSGSGTDFTLKISRVEAEDVGVYYCSQSTHVPYTFGGGTKVEIK
notes: humanized IgG
B12: the binding result with Human full length B7-H3 [7] is “binds”.

B13: huAb3v2.8 (antibody, V domains shown)
VH: EVQLVQSGAEVKKPGSSVKVSCKASGYTFSSYWMHWVRQAPGQGLEWIGLIHPISGSTNYNEMFKNRATLTVDRSTSTAYMELSSLRSEDTAVYYCAGGGRLYFDYWGQGTTVTVSS
VL: DIVMTQSPLSLPVTPGEPASISCRSSQSLVHSNRDTYLRWYLQKPGQSPQLLIYKVSNRFSGVPDRFSGSGSGTDFTLKISRVEAEDVGVYYCSQSTHVPYTFGGGTKVEIK
notes: humanized IgG
Turning to B13, in the assay with Human full length B7-H3 [7], the binding result is listed as “binds”.

B14: huAb3v2.2 (antibody, V domains shown)
VH: EVQLVQSGAEVKKPGSSVKVSCKASGYTFSSYWMHWVRQAPGQGLEWIGLIHPWSGSTNYNEMFKNRATLTVDRSTSTAYMELSSLRSEDTAVYYCAGGGRLYFDYWGQGTTVTVSS
VL: DIVMTQSPLSLPVTPGEPASISCRSSQSLVHSNRDTYLRWYLQKPGQSPQLLIYKVSNRFSGVPDRFSGSGSGTDFTLKISRVEAEDVGVYYCSQSTHVPYTFGGGTKVEIK
notes: humanized IgG
As to B14, in the assay with Human full length B7-H3 [7], the binding result is “binds”.
